From US20170015742A1 (published 2017) come the findings set out here.

The target in experiment [1] is T1, Human PDGF-BB (human, UniProt P01127 82-190).
T1 construct: Recombinant human PDGF-BB, a homodimer of two B chains; also called hPDGF-BB; huPDGF-BB
Nature of the experiment: SPR (Biacore), antibody captured via anti-human Fc, antigen in solution. The method in brief: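 Antibodies or DVD-Ig molecules (1 μg/ml) were captured on an anti-human Fc CM5 surface, with antigen injected in solution and responses referenced to the capture-only surface. Rate constants came from a global 1:1 Langmuir fit, and KD = koff/kon.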

Experiment [2] has as its target T1, Human PDGF-BB. The experiment in a line: SPR (Biacore), antibody captured via anti-human Fc, antigen in solution; footnote *: heterogeneous off-rate. How it is done:
For example, approximately 9000 RU of goat anti-human Fc specific polyclonal antibody (Thermo Fisher Scientific Inc., Rockford, Ill.) diluted in 10 mM sodium acetate (pH 4.5) is directly immobilized across a CM5 research grade biosensor chip using a standard amine coupling kit according to manufacturer's instructions and procedures at 25 μg/ml. Unreacted moieties on the biosensor surface were blocked with ethanolamine. For kinetic analysis, rate equations derived from the 1:1 Langmuir binding model were fitted simultaneously to multiple antigen injections (using global fit analysis) with the use of Scrubber 2 (BioLogic Software), Biacore Biaevaluation 4.0.1 software or Biacore T100 Evaluation software. Purified antibodies or DVD-Ig molecules were diluted in running buffer for capture across goat anti-human Fc reaction surfaces. Antibodies or DVD-Ig molecules to be captured as a ligand (1 μg/ml) were injected over reaction matrices at a flow rate of 10 μl/minute. During the assay, all measurements were referenced against the capture surface alone (i.e., with no captured antibody or DVD-Ig molecule). […] The equilibrium dissociation constant KD (M) of the reaction between antibodies and the target antigen was then calculated from the kinetic rate constants by the following formula: KD=Koff/Kₒₙ. Binding was recorded as a function of time and kinetic rate constants were calculated.
A general note: In SPR one partner is held on a chip, and binding of the other changes the refractive index at the surface.

In experiment [3] the target is T2, Recombinant human FcγRIIb, 6xHis-tagged (human, UniProt P31994 46-217, limits assumed).
T2 construct: Captured through its 6xHis tag; also called huFcRIIb
T2 sequence: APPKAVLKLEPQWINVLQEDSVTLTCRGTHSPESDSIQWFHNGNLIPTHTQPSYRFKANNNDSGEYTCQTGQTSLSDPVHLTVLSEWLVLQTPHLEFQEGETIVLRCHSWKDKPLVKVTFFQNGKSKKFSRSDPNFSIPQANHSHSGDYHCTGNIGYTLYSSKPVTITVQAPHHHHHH
Nature of the experiment: Biacore SPR; His-tagged human FcγR captured on anti-6xHis antibody, DVD-Ig injected. The procedure:
(§1) A CM5 chip (GE Healthcare, Pittsburgh, Pa.) with mouse anti-6×His antibodies (“6×His” disclosed as SEQ ID NO: 405) that were directly immobilized on the chip via amine coupling according to the GE Healthcare protocol to the density of 10000RU (all flow cells) was used for experiments. Human FcγRs were captured on flow cells 2, 3 and 4. Flow cell 1 was used as a reference surface. HBS-EP+ was used as the running buffer. […] The chip surfaces were regenerated with an injection of 10 mM glycine pH 1.5 at a flow rate of 100 μL/minute over all four flow cells after each cycle.

The target in experiment [4] is T3, Recombinant human FcγRIIa H131, 6xHis-tagged (human, UniProt P12318 36-218, limits assumed).
T3 construct: Captured through its 6xHis tag
T3 sequence: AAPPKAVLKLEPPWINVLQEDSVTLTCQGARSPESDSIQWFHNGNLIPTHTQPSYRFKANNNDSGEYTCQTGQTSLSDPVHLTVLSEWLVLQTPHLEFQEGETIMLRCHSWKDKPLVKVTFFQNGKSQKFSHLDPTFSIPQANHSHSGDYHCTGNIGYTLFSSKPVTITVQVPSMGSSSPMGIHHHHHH
The description is as above. The procedure:
as §1

The target of experiment [5] is T4, Recombinant human FcγRIIa R131, 6xHis-tagged (human, UniProt P12318 36-218, limits assumed).
T4 construct: Captured through its 6xHis tag
T4 sequence: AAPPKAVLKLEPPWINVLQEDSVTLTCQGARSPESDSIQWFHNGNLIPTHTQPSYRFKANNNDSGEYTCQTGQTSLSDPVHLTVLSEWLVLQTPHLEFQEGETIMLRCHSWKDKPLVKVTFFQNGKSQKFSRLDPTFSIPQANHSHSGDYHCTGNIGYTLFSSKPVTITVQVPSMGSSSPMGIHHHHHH
The experiment is described as above. How it is done:
as §1

The target in experiment [6] is T5, Recombinant human FcγRIIIa F158, 6xHis-tagged (human, UniProt P08637 17-208, limits assumed).
T5 construct: Captured through its 6xHis tag
Described as above. The procedure: as §1

In another experiment the target is T6, Recombinant rat FcRn (rat, UniProt P13599 23-298, limits assumed).
T6 construct: FcRn is normally a heterodimer with beta-2-microglobulin
T6 sequence (looked up) 1: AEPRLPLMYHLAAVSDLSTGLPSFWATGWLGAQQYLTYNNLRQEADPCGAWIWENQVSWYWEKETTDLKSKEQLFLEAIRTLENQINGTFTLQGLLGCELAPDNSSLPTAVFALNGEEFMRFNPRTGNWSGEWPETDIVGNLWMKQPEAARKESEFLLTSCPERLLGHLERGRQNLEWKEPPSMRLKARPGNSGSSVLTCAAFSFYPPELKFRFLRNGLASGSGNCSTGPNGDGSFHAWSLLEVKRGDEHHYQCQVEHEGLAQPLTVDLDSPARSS
T6 sequence (looked up) 2: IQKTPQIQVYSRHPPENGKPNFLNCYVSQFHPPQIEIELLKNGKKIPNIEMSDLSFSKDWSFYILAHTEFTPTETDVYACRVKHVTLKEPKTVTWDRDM
Nature of the experiment: Biacore SPR; DVD-Ig immobilised by amine coupling, recombinant FcRn injected; 1:1 binding fit. The procedure: Human, cynomolgus, mouse, rat and rabbit recombinant FcRns were injected over all the flow cells at a flow rate of 50 μL/minute for 1 minute at a concentrations range of from 2.7 to 6000 nM (three fold serial dilution), followed by a 2 minute dissociation time. The surfaces were regenerated with an injection of 10 mM HCl at 100 μL/minute for 2 seconds followed by an injection of HBS-EP+, pH 7.4, at a flow rate of 50 μL/minute for 30 seconds over all four flow cells. Samples were prepared and run in two running buffer systems, pH 6.0 MES-EP+, and pH […]. Recombinant human FcγRIIIa V158 and rat and mouse FcRn data were fitted to 1:1 kinetic model. Recombinant human FcγRIIa R131 and FcγRIIa H131, FcγRIIIa F158, and recombinant human, cynomolgus and rabbit FcRn binding data were fitted to a steady state affinity model. Biacore T200 Evaluation Software version 2.0 was used to fit all the data.

Experiment [7] concerns the target T7, Recombinant human FcγRIIIa V158, 6xHis-tagged (human, UniProt P08637 17-208, limits assumed).
T7 construct: Captured through its 6xHis tag; also called huFcRIIIa 158V
Nature of the experiment: Biacore SPR; His-tagged huFcγRIIIa 158V captured on anti-6xHis antibody, DVD-Ig injected; steady state fit. The procedure: as §1
The binding of DVD-Ig molecules to FcRn from various species and the binding of DVD-Ig molecules to various FcγRs were characterized by Biacore using the method described in Example 1.2.

T1 sequence (P01127 82-190 limits assumed): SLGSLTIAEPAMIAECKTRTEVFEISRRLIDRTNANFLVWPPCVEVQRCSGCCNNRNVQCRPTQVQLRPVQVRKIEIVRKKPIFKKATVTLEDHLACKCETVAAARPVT
T5 sequence (P08637 other isoform, or with tags, fused parts or gaps limits assumed): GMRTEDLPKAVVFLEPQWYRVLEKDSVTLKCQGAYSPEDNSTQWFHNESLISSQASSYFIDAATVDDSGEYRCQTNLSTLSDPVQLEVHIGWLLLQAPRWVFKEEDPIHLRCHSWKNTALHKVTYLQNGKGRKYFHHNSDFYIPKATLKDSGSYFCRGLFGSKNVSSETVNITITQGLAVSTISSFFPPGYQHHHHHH
T7 sequence (P08637 other isoform, or with tags, fused parts or gaps limits assumed): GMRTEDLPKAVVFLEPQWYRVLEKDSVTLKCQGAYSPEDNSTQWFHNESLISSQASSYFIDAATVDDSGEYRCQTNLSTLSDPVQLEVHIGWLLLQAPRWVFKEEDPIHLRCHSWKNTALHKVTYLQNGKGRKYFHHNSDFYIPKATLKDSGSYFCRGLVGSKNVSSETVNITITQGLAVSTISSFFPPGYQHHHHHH

B1: hBDI-9E8.13 (antibody, V domains shown)
VH: EVTLRESGPALVKPTQTLTLTCTFSGFSLSTYGMGVGWIRQPPGKGLEWLANIWWDDDKYYNPSLKNRLTISKDTSKNQAVLTITNMDPVDTATYYCARIESIGTTYSFDYWGQGTMVTVSS
VL: DFQLTQSPSSLSASVGDRVTITCERSSGDIGDSYVSWYQQKPGKAPKNVIYADDQRPSGVPSRFSGSGSGNSASLTISSLQPEDFATYYCQSYDINIDIVFGQGTKVEIK
notes: Humanized IgG
With B1, the kon (in general, a measure of how fast the partners come together) with Human PDGF-BB [1] is ≥ 1e+07 M⁻¹ s⁻¹. Further, the Kd (commonly a measure of binding affinity in units of concentration) in the experiment with Human PDGF-BB [2] was ≤ 0.1 nM.

B2: hBDI-5H1.13 (antibody, V domains shown)
VH: EVTLKESGPALVKPTQTLTLTCTFSGFSLSTFGMGVGWIRQPPGKALEWLANIWWDDDKYYNPSLKNRLTISKDTSKNQAVLTITNMDPVDTATYYCARISTGISSYYVMDAWGQGTTVTVSS
VL: DFQLTQSPSSLSASVGDRVTITCERSSGDIGDTYVSWYQQKPGKAPKNVIYGNDQRPSGVPSRFSGSGSGNSATLTISSLQPEDFATYFCQSYDSDIDIVFGQGTKVEIK
notes: Humanized IgG
Take B2: the kon in the experiment with Human PDGF-BB [1] is ≥ 1e+07 M⁻¹ s⁻¹. In the experiment with Human PDGF-BB [2], the Kd was ≤ 0.49 nM.

B3: 4G8.3-GS-9E8.4(g) (PR-1572102), anti-VEGF-A/anti-PDGF-BB DVD-Ig, hu IgG1/k L234A L235A H435A (bispecific antibody)
heavy: EVQLVQSGSELKKPGASVKVSCKASGYTFTNYGMYWVRQAPGQGLEWMGWINTETGKPTYADDFKGRFVFSLDTSVSTAYLQISSLKAEDTAVYYCARTNYYYRSYIFYFDYWGQGTMVTVSSGGGGSGGGGSEVTLRESGPALVKPTQTLTLTCTFSGFSLSTYGMGVGWIRQPPGKALEWLANIWWDDDKYYNPSLKNRLTISKDTSKNQVVLTMTNMDPVDTATYYCARIESIGTTYSFDYWGQGTMVTVSSASTKGPSVFPLAPSSKSTSGGTAALGCLVKDYFPEPVTVSWNSGALTSGVHTFPAVLQSSGLYSLSSVVTVPSSSLGTQTYICNVNHKPSNTKVDKKVEPKSCDKTHTCPPCPAPEAAGGPSVFLFPPKPKDTLMISRTPEVTCVVVDVSHEDPEVKFNWYVDGVEVHNAKTKPREEQYNSTYRVVSVLTVLHQDWLNGKEYKCKVSNKALPAPIEKTISKAKGQPREPQVYTLPPSREEMTKNQVSLTCLVKGFYPSDIAVEWESNGQPENNYKTTPPVLDSDGSFFLYSKLTVDKSRWQQGNVFSCSVMHEALHNAYTQKSLSLSPGK
light: DTVLTQSPATLSLSPGERATLSCRASESVSTHMHWYQQKPGQAPRLLIYGASNLESGVPARFSGSGSGTDFTLTISSLEPEDFAVYFCQQSWNDPFTFGQGTKLEIKRGGSGGGGSGEFVLTQSPGTLSLSPGERATLSCERSSGDIGDSYVSWYQQKPGQAPRLVIYADDQRPSGIPDRFSGSGSGTDFTLTISRLEPEDFAVYYCQSYDINIDIVFGGGTKVEIKRTVAAPSVFIFPPSDEQLKSGTASVVCLLNNFYPREAKVQWKVDNALQSGNSQESVTEQDSKDSTYSLSSTLTLSKADYEKHKVYACEVTHQGLSSPVTKSFNRGEC
notes: also called 4G8.3-GS(9)-9E8.4 (g); hu VEGF 4G8.3-GS-hu PDGF 9E8.4 (germline) [hu IgG1/k]; LALA H435A
Turning to B3, the binding result in experiment [3] was “no binding (tested: DVD-Ig 31.25 to 4000 nM)”; in experiment [4], “no binding (tested: DVD-Ig 31.25 to 4000 nM)”; in experiment [5], “no binding (tested: DVD-Ig 31.25 to 4000 nM)”; in experiment [6] it was “no binding (tested: DVD-Ig 31.25 to 4000 nM)”; with Recombinant rat FcRn, “no binding (tested: FcRn 2.7 to 6000 nM)”. The Kd in experiment [7] came out at 7400 nM.

B4: hBDI-5H1.7 (antibody, V domains shown)
VH: EVTLKESGPALVKPTQTLTLTCTFSGFSLSTFGMGVGWIRQPPGKALEWLANIWWDDDKYYNPSLKNRLTISKDTSKNQAVLTITNMDPVDTATYYCARISTGISSYYVMDAWGQGTTVTVSS
VL: EIVLTQSPGTLSLSPGERATLSCERSSGDIGDTYVSWYQQKPGQAPRLLIYGNDQRPSGIPDRFSGSGSGTDFTLTISRLEPEDFAVYYCQSYDSDIDIVFGGGTKVEIK
notes: Humanized IgG
On to B4, for which the on-rate constant (kon) with Human PDGF-BB [1] is ≥ 1e+07 M⁻¹ s⁻¹. Also, in the experiment with Human PDGF-BB [2], the Kd was ≤ 2.9 nM.

B5: hBDI-5H1.8 (antibody, V domains shown)
VH: EVTLKESGPALVKPTQTLTLTCTFSGFSLSTFGMGVGWIRQPPGKALEWLANIWWDDDKYYNPSLKNRLTISKDTSKNQAVLTITNMDPVDTATYYCARISTGISSYYVMDAWGQGTTVTVSS
VL: EFVLTQSPGTLSLSPGERATLSCERSSGDIGDTYVSWYQQKPGQAPRLVIYGNDQRPSGIPDRFSGSGSGTDFTLTISRLEPEDFAVYYCQSYDSDIDIVFGGGTKVEIK
notes: Humanized IgG
As for B5, the kon with Human PDGF-BB [1] was ≥ 1e+07 M⁻¹ s⁻¹. The Kd with Human PDGF-BB [2] is ≤ 72 nM.
